Assay: yeast display, Sf9 membrane polyspecificity reagent, FACS + sequencing; frameworks hold sequencing errors
Summary of the method: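 After 36–48 hours of galactose induction, yeast (Saccharomyces cerevisiae BJ5465) displaying a synthetic nanobody library were stained at 4 °C for 1 hour with 10% biotinylated, detergent-solubilized Sf9 membrane reagent. Streptavidin microbeads enriched the stained cells before FACS sorting into low and high (top ~1%) gates on anti-HA and streptavidin fluorescence. Each clone's polyreactivity label reflects its gate of origin.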

Row | Sequence | polyreactivity (PSR sort gate)
1 | QVQLVESGGGLVQAGGSLRLSCAASGSTSSDYAMGWYRQPPGKERELVASISRSGGSTNYADSVKGRFTISRDNAKNTVYLQMNSLKPEDTAVYYCAARQSYRYYWGKGTQVTVSS | high polyreactivity
2 | QVQLVESGGRLVQAGGSLRLSCAASGFTFPWYTMGWYRQPPGKEREFVAAITVSGGSTYYADSVKGRFTISRDNAKNSVYLQMNSLKPEDTAVYYCARDGRVVYDSRYDYWGQGTQVTVSS | low polyreactivity
3 | QVQLVESGGGLVQAGGSLRLSCAASGIIFGTYAMGWYRQAPGKERELVAAINWSGGSTYYADSVKGRFTISRDNAKNTVYLQMNSLKPEDTAVYYCAADGNEYDYWGQGTQVSVSS | low polyreactivity
4 | QVQLVESGGGLVQAGGSLRLSCAASGSIFEDYAMGWYRQAPGKERELVAAIDWGDGDTYYADSVKGRFTISRDNAKNTVYLQMNSLKPEDTAVYYCAADLVGYSGYYFDEEYYWGQGTQVTVSS | high polyreactivity
5 | QVQLVESGGGLVQAGGRLRLSCAASGSTLSYYAMGWYIQAPGKERELVAAISFSGGSTYYADSVKGRFTISRDNAKNTVYLQMNSLKPEDTAVYYCNAPPLYRDEYWGQGTQVTVSS | high polyreactivity
6 | QVQLVESGGGLVQAGGSLRLTCAASGLIFYRYAMGWYRQAPGKERELVATMSRSGGTYADSVKGRFTISRDNAKNTVYLQMNSLKPEDTAVYYCNARTLYAYITRDYWGQGTQVTVSS | high polyreactivity
7 | QVQLVESGGGLVQAGGSLRLSCAASGRIFKWYAMGWYRQAPGKEREFVAAINWNGDSTHYADSVKGRFTISRDNAKNTVYLQMNSLKPEDTAVYYCNARVFVTRSYYWGQGTQVTVSS | low polyreactivity
8 | QVQLVESGGGLVQAGGSLRLSCAASGFTFYRYTMGWYRQPPGKERELVAAISARGVSTYYADSVKGRFTISRDNAKNTVYLQMNSLKPEDTAVYYCYVSRYDSWGQGTQVTVSS | high polyreactivity
9 | QVQLVESGGGLVQAGGSLRLSCAASGLTLGHNAMGWYRQAPGKERELVAAITNYADSVKGRFTISRDNAKNTVYLQMNSLKPEDTAVYYCAADWWRVEMDYWGQGTQVTVSS | low polyreactivity
10 | QVQLVESGGGLVQAGGSLRLSCAASGRIFAYNAMGWYRQAPGKERELVATITSSGDGTSYADSVKGRFTISRDNAKNTVYLQMNSLKPEDTAVYYCNKVTRVRRDPYDAVAYRGGYWGQGTQVTVSS | high polyreactivity
11 | QVQLVESRGGLVQAGGSLRLICAASGRIFGRNAMGWYRQAPGKERELVAAISKRGGSTSYADSVKGRFTISRDNAKNTVYLQMNSLKPEDTAVYYCATSAPLVTSSGYGYWGQGTQVTVSS | high polyreactivity
12 | QVQLVESGGGLVQAGGSLRLSCAASGITLLVNAMGWYRQAPGKERELVAAISGSSGGSTYYADSVKGRFTISRDNAKNTVYLQMNSLKPEDTAVYYCAKRKWYWGLSYIYDSWGQGTQVTVSS | low polyreactivity
13 | QVQLVESGGGLVQAGGSLRLSCAASGSIFNDNVMGWYRQAPGKERELVAGISRSGTRTYYADSVKGRFTISRDNAKNTVYLQMNSLKPEDTAVYYCAAAYGQARRYNGSQYGSWGQGTQVTVSS | high polyreactivity
14 | QVQLVESGGGLVQAGGSLRLICAASGYIFVRNAMGWYRQAPGKERELVAAISGSGGSTYYADSVKGRFTISRDNAKNTVYLQMNSLKPEDTAVYYSAADYATVTWRGIAYDYWGQGTQVTVSS | low polyreactivity
15 | QVQLLESGGGLVQEGGSLRLSCAASGFIFSKNVMGWYRHAPGKERELVARITRSGGTTYYADSVKGRFTISRDNAKYTVYLQMNSLKPEDTAVYYCAARRYGYTSITWYDYWGQGTQVTVSS | high polyreactivity
16 | QVQLVESGGGLVQAGGSLRLSCAASGSTFLRNAMGWYRQAPGKERELVATISTGSGRTYYADSVKGRFTISRDNAKNTVYLQMNSLKPEDTAVYYCATRVPLGPYYYGMYYWGQGTQVTVSS | high polyreactivity
17 | QVQLVESGGGLVQAGGSLRLSCAASGFTFSYYAMGWYRQAPGKERELVAAISSGGSTNYADSVKGRFTISRDNAKNTVYLQMNSLKPEVTAVYYCNVRLYYPTYASMEYWGQGTQVTVSS | low polyreactivity
18 | QVQLVESGGGLVQAGGSLRLSCAASGSTFAYNALGWYRQAPGKERELVAAIDINDGNTYYADSVKGRFTISRDTAKNTVNLQINSLKPEDTAVYYCAAEYFYPYYGAMDYWGQGTQVTVSS | low polyreactivity
19 | QVQLVESGGGLVQAGGSLRLSCAASGSIFEGNAMGWDRQAPGKERELVASISGDGSTNYADSVKGRFTISRDNAKITVYLQMNCLKPEDTAVYYCAASFRWYGTVRYPYEMYYWGQGTQVTVSS | low polyreactivity
20 | QVQLVESGGGLVQAGGSLRLSCAASGRIVYSNTMGWYRQAPGKERELVARIDTGGGSTYADSVKGRFTISRDNAKNTVYLQMNSLKPEDTAVYYCNKKGRWRSWGSTSLVSMDYWGQGTQVTVSS | low polyreactivity
21 | QVQLVESGGGLVQAGGSLRLSCAASGRILRGYAMGWYRQAPGKERELVAAISWNGGSTYYADSVKGRFTISRDNAKNTVYLQMNSLKPEDTAVYYCAVVFNPHRYTGVLAGYDYWGQGTQVTVSS | high polyreactivity
22 | QVQLVESGGGLVQAGGSLRLSCAASGITLTIYTMGWYRQAPGKERELVAAINWSGTRTYYADSVKGRFTISRDNAKNTVYFQMNSLKPEDTAVYYCAATTYRYPNILGYDYWGQGTQVSVSS | high polyreactivity

Row | Sequence | polyreactivity (PSR sort gate)
23 | QVQLVESGGGLVQAGGSLRLSCAASVYIFWINAMGWYRQAPGKDRELVAAIRYSTGRTYYADSVKGRFTISRDNAKNTVYLQMNSLKPEDTAVYYCNARSWYIRGSQEYYYWGQGTQVTVSS | high polyreactivity
24 | HVQLVESGGGLVQAGGSLRLSCAASGSTFGGNAMGWYRQAPGKERELVAAISKSGGRTFYADSVKGRFTISRDNAKNTVYLQMISLKPEDTAVYYCAAQYRGYGYWGQGTQVTVSS | high polyreactivity
25 | QVLLVESGGGLVQAGGSLRIICAASGLTFSDYAMRWYRQAPGKERELVAGISSGGSTYYADSVKGRFTISRDNAKNTVYLQMNSLKPEDTAVYYCAATRYNRWPIKFDYWGQGTQVTVSS | high polyreactivity
26 | QVQLVESGGGLVQAGGSLRLSCAASGSNYTYYAMGWYRQAPGKERQLVAAIRSSGSTYYADSVKGRFTISRDNAKNTVYLQMNSLKPEDTAVYYCAAKARRLNASSYDYWGQGTQVTVSS | high polyreactivity
27 | QVQLVESGGGLVQAGGSLRLSCAASGSIFRYYAMGWYRQAPGKEREFVASITYRGGRTYYADSVKGRFTISRDNAKNTVYLQLNSLKPEDTAVYYCAARTRAGAWTSKYLDYWGQGTQVTVSS | high polyreactivity
28 | QVQLVESGGGLVQAGGSLRLSCAASGITFTRNAMGWYRQAPGKERELVAAISRRSGSTYYADSVKGRFTISRDNAKNTVYLQMNSLKPEDTAVYYCAATYSVHFVRYGYWGQGTQVTVSS | high polyreactivity
29 | QVQLVESGGGLVQAGGSLRLSCAASGSTFPYYTMGWYRQAPGKEREMVAAITGSGGSTYYADSVKGRFTISRDNAKNTVYLQMNSLKPEDTAVYYCAKRRWDQYFKNRMYFWGQGTQVTVSS | high polyreactivity
30 | QFQLVESGGGLVQAGGTLRLSCPATGLIFAYNTMGWYRHAPGKERELVAGITSGGSTYYADSVKGRFTISRDNAKNTVYLHLNSLKPEDSAVYYCAAAYRNWSVSFGYWGQGTQVTVSS | high polyreactivity
31 | QVQLVESGGGLVQAGGSLRLSCAASGSISLYAMGWYRQAPGKERELVAAITKSGGSTYYADSVKGRFTISRDNAKNTVYLQMNSLKPEDTAVYYCNRGGGERKYNYWGQGTQVTGSS | high polyreactivity
32 | QVQLVESGGGLVQAGGSLRLSCAASGFTFPGYTMGWYRQAPGKERELVAAITWSGGSTYYADSVKGRFTISRDTAKNTVYLQMNSLKPEDTAVYYCAAKYGAYYGNRDYWGQGTQVTVSS | high polyreactivity
33 | QVQLVESGGGLVQAGGSLRLSCAASGSTFAINAMGWYRQAPGKERELVAAISSSGSTNYADSVKGRFTISRDNAKNTVYLQMNSLKPEDTAVYYCAADQYWDGYDFLYDYWGQGTQVTVSS | low polyreactivity
34 | QVQLVESGGGLVQAGGSLRLSCAASGRTYYNNAMGWYRQAPGKEREFVAAISASGGRTRYADSVKGRFTISRDNAKNTVYLQMNSLKPEDTAVYYCAAAGTSTLYWGQGTQVTVSS | high polyreactivity
35 | QFQLVESGGGLVQAGGSLRLSCAASGFTYYFYAMGWYRPAPGKERELVAAISRGGSTTYADSVKGRFTISRDNAKNTVYLQMYSLKPEDTAVYYCGADDYYDPHYEYDFWGQGTQVTVSS | low polyreactivity
36 | QVQIVESGGGLVQAGGSLRLSCAASGRTFAYYAMGWYRQAPGKERELVATISGSGGTTRYADSVKGRFTISRDNAKNTVYLQMNSLKPEDTAVYYCAARYASGRRGEYWGQGTQVTVSS | high polyreactivity
37 | QHQLVESGGGLVQAGGSLRLSCAASGRTFYWNAMGWYRQAPGKERELVAGISNGGTTTYYADSVKGRFTISRDNAKNTVYLQMNSLKPEDTAVYYCAADIWYFDYDYWGQGTQVNVSS | high polyreactivity
38 | QVQLVESGGGLVQAGGSLRLSCAASGRIFVWNVMGWYRQAPGKERELVAAITYSGDTTYYADSVKGRFTISRDNAKNTVYLQMNSLKPEDTAFYYCAAVRRGGGVKYDYWGQGTQVTVSS | high polyreactivity
39 | QVQLVESGGALVQAGGSLRLSCAASGSTFRYDMGWYRQAPGKERELVAAITWGGVSTYYADSVKGRFTISRDNAKNTVYLQMNSLKPEDTAVYYCNVVISLQQGDYWGQGTQVTVSS | low polyreactivity
40 | QVQLVESGGGLVQAGGSLRLSCAASGFILSGYAMGWYRQAPGKERELVAVISGGGRTYYADSVKGRFTISRDNAKNTVYLQMNSLKPEDTAVYYCARPRTRQGDYWGQGTQVTVSS | high polyreactivity
41 | QVQLVESGGGLVQAGGSLRLSCAASGRTFSYYAMGWYRQAPGKERELVATIRFSAGGTYYADSVKGRFTISRDNAKNTVYLQMNSLKPEDTAVYYCNADSIDPFLYDYWGQGTQVTVSS | low polyreactivity
42 | QVQLVESGGGLVQAGGSLRLSCAASGITFRTYAMGWYRQAPGKERELVAAISGSSTSTYYADSVKGRFTISRDNAKNTVYLLMNSLKPEDTAVYYCAAGYRVSVYRYYYWGQGTQVTVSS | high polyreactivity
43 | QVQLVESGRGLVQAGGSLRLSCAASGRILDSNAMGWDRQAPGKESELVAAITWRGGSTYYADSVKGRFTISRDNAKNTVYLQMNSLKPEDTAVYYCNARWSKTAHTRFGYWGQGTQVTVSS | low polyreactivity

— the nanobody polyreactivity screen of Harvey et al. (2022)
